These results are taken from the DeepSol protein solubility set.

The data set in a line: soluble on expression in E. coli; label from the status in PepcDB or PDB records.
As to “MRVKHFELLTDEGKTFTHVDLYGKYTILFFFPKAGTSGCTREAVEFSRENFEKAQVVGISRDSVEALKRFKEKNDLKVTLLSDPEGILHEFFNVLENGKTVRSTFLIDRWGFVRKEWRRVKVEGHVQEVKEALDRLIEEDLSLNKHIEWRRARRALKKDRVPREELELLIKAAHLAPSCMNNQPWRFVVVDEEELLKKIHEALPGGNYWMKNAPALIAVHSKKDFDCALPDNRDYFLFDTGLAVGNLLVQATQMGLVAHPVAGYDPVKVKEILKIPEDHVLITLIAVGYLGDESELSEKHRELERSERVRKELSEIVRWNL”, the “soluble on expression in E. coli” value is “soluble”.
The entry for “MTLPDSKKDQTARHVAILQESYRHYTGRYLFDPKLGASEAIVWLEQAPFALVSHGTQPDPIFNYGNQTALQLFGMTWDEFTRMPSRLSAEPVDRAERTRLLDHVSRDGYIDDYTGVRIAADGRRFLIRHATVWNLLDESGRFYGQAAMIPEWEVLQPVFTAD” is “not soluble”; for “MGSDKIHHHHHHVTEPIRLYYWPAPNFGDALSHLVVEHVSGRPVVNARPKQAELFALGSLMHVISRHWTERVRGEGPLLWGTGLLNPFYRKEFLENVRVRLLRGPISAAFLRLKMTEFGDPGLLADEAVGPVEDRHDRVAIVPHHSQMDDPRFVEMVEADPALHLIDVRLDPVTVCREIAASAHVFSASLHGLIVADAYGVANTWMDPEAQGRLKYHDYAAAIGRDMIAPVEIRDVPKAARTARDRPFPYADGIARCRESLHRHFPAELRAPLRATAS” it is “not soluble”; for “MGSDKIHHHHHHMNELTKQLQEIMVPKAALIAYEYQEGHYASGSHYLELRPINKKGRMEAGIPVTYEFMDSLVESYSDGNRRIPHGWLPPNMLWCDTRRGHESYVWYNPPGKRRMFFKNDLNIGDGMFHVPGVIYIIKNERMDIFAYKGKKPDGRTPLYLAPFFNVTGGNVCLGNSTLEKPESLDFHTLLEYWEKRFWLSEFSHLGGGKNPTRNNLVLVTERMREQPFDNDELQPINKRLKDILP” it is “not soluble”.
On to “MSLRPRAQTAGTWPRVCIESVTPSVDNGRFPVKRTVGDRICVEADAFCDGHDRIAVAVLWRPADAKAWASAPMRALGNDRWRAEFPLERIGTYEFRVEAWRDVFATLHADLEKKRAANTVLPVDVQEAVAAVQAAQARSDGALAERLQTVLTRIGAQSEPLQQLAIVLEPDTAQAMALADDKPFRSEYPVTFRVESERRAAHFSSWYELFPRSQSGDASRHGTFDDVIKRLPHIRAMNFDVLYMPPIHPIGLNNRKGRNNSVTAVEGEPGSPYAIGATDGGHTEVHAELGGLEGFRRLIEAARAQGLEVALDFAIQCAPDHPWLKEHKDWFTWRADGSIPYAENPPKKYQDIVNVDFYASGAVPDLWNTLRDAVLFWVNEGVTLFRVDNPHTKPFPFWEWLIADVRGRRPDVVFLSEAFTRPKMMYRLAKCGFSQSYTYFTWRNHKHELRAYVEELNDGVPRECFRPHFFVNTPDINPLFLQTSGRNGHLIRAALATTLSGLWGMYQGFELCEATPLAPGKEEYLDSEKFQLRAWPERVPGDIVEEITRFNQLRRMHPELQSHLGTRFYQAHNDQVLYYGKFLDAGYLSRSRSMVLVAINLDPHAGQDADIEIPLWELGLPDHASVAVEDLWDGHRFAWHGKYQHIRLEATRPFALWRIRAGEGHHHHHH”, for which the “soluble on expression in E. coli” value is reported as “soluble”.
The result for “MKMLTVENLSKSYGEKPLFDGLSFSIAEGQRAGIIGVNGTGKSTLLKIIAGAEIPDTGDMTHSRGYTISYLSQQPEFDEQLTVLEQVFHGDTPLIRLLRDYEKALLHIEKDPSNEKVQEQLFAVQQRMDAMSVWEANANAKSLLTKLGITDFTATVGNLSGGQKKRIAMAQCFIETPDLLILDEPTNHLDHETVEWLEEYLARYTGAVLLVTHDRYFLDRVTNRIFELDNGKLYSYEGNYSTFLEAKALREEQELAQESKRQNLYRRELAWIRRGAKARSTKQKARIQRFEELKGQEGPAAKQSVDIALSGSRLGKKVLELKDVTKKFGDKTVLNNFNHIVKPGDRIGIIGANGSGKSSLLNMLAGKISPDSGEIEVGQTVKIAYYTQENEEMNLNQRMIEYIKEIAEVIHTTDGKVIGASQMLERFLFPPHSHGTPLGKLSGGERRRLYLLRILMGEPNVLLLDEPTNDLDPQTLTVLEDYLEDFSGVVLTVSHDRYFLDKVVDELFIFTGEGEVREFLGSYTDYLEMEKTRELIEKAEVQKEKKVVEEAPKQQRKRKLSYNEQREWETIEDTIAELEEKLESIGEELANVGSDFTKAQELSEAQQKTEEELEKTMERWSELSDIVEGLK” reads “not soluble”; that for “MGSDKIHHHHHHMIGICCLFIVTSCQNREPQGASIQGKDFAQSTEKSVIMVMIDSMTADLLDAAKEEGIIPGLSFLMENGTYFDELIAPFPSMSVVIESTLITGSLPDEHKVPGLVWYHAEEDRLVDYGSTPETYMKLGLNRVLFDDLSNLNNRHLSKDVPTIHEILQDSQMSTGSVNALVYRGNTSHKVNLPEPFDTWMQGQPFETKGPDLLSFGTIIEPKVIQAKELDDDHFLDLYGLNDSYGTAVVRTLIEKNEQPQFLFLFMPDFDQATHDHGQLNLEDFEKVDHAFQDILNSYDSWEQALEENIFIVIGDHGQSQIASTASDAIIPLPTLYEEYEIASLMDAPSDGEIVIANNHRMVYVYSFQPAHSFDTLANEALEDLRIQFAAYLEDDELVIKAPEHKEPLKVKKGGSWIDPYGQTWTIEGNEQIGDVFFDHDCKRIMYGENPDLFNQLFHALDSHTSTLVLTAKPGYIFESEGAPAHIGGGEHGGIHEEDTKAAMIIAGTDKAPAHLRMVDLKDFIIRLMTEEN”, “not soluble”; that for “MMYSFEANANAVKISETVSVDTGQGAKIHKFVPKNSKTYSSDLIKTVDLTHIPTGAKARINAKITASVSRAGVLAGVGKLARLGAKFSTRAVPYVGTALLAHDVYETFKEDIQARGYQYDPETDKFAKVSG”, “not soluble”.
On to “SLASPKRWTTNGLSTNQTLCYTLGEGQPSPFFYLRSARKMPQSVEQHIAAITDRIKDFVRFLDREEVAPVLAELREMFARELRATEGFASHERELHDRIRHESDYEQLRAIHDELNVLEMERFLAISSVSALHANCTEYRDILADRALALAEDEMEHDGRGRAPCPYALCSMGSDGREEQTLITDQDYLIVYGDGGGEAADEWFREFSELIVERLAQIGFKKCTGDIMPSNPTWRGSLSQWRRKLLAIVRYEYEDYAKNLMDLIVISDARHVAGDRDLAATLIATIRALEKDYFQVLWGMAKAATEMKLALGFLKRLWTEGSGEHKGEFNLKLLAWAPLVMNVRILAINQGVPATNTVKRIEHLAREGSFSPSFANGLVEAYEVLTRHRILLQIKVIKGIQKSSYYLNPYTLPAEEREAIRQALLRIEDLQRTIHTNFSIM”, for which the “soluble on expression in E. coli” value is “not soluble”.
On to “MHYCPGCSHGVVHKLIAEVIEEMGLTEETIGIAPVGCSVFAYRYIDIDWQEAAHGRAPALATAVKRLNPSKLVFTYQGDGDLAAIGTAETIHAANRGENIAIIFINNGIYGMTGGQMAPTTLEGMVTATCPQGRNVELNGYPLKIADMLALLDGTCLVTRQTVHNAAAVRKTKKMIQKAFENSMNRKGTSIVEVVSTCNTGWKMSPAASNDWMMENMAKQYPLGDLKNID”, for which the “soluble on expression in E. coli” value is on record as “not soluble”.
With “MAVRKLTTGKWLCECYPAGRSGRRVRKQFATKGEALAFERHTMEETEAKPWLGESVDRRTLKDVVELWFKLHGKSLTAGQHVYDKLLLMVDALGNPLATDLTSKMFAHYRDKRLTGEIYFSEKWKKGASPVTINLEQSYLSSVFSELSRLGEWSYPNPLENMRKFTIA”, the “soluble on expression in E. coli” value was “not soluble”.
On to “MLFWLMASLWPMKAGVVYADQTEGAITFVSDEKIEGWATAPGIGNGQGNSIRYFMIRIQPKEQSGTAVSYRAEAVEAPADRNGEKKYTFSLDMRGKWPSAPGTMVTYQITVDAYRVLGNGKEDVYFSFPQTPYQYTRQTEASTAKLDFSLSFSQPEYAKPPNGDAQGRLDVTLVPQGAVSGIIRPPIDVVFVMDVSGSMTAMKLQSAKSALQAAVNYFKSNYNQNDRFALIPFSDGVREASVVPFGKYSNVASQLDAILNTGNSLTAGGGTNYSAALSLAKSYFTDPTRKKYIIFLTDGMPTVLNAVDTITYREVKQNFWGGYSYTGNRVTDSLSITYELYSDGRTAGIRFTDNKGYSRRFYSDGQDYVNGWRVSWDNGYSFTYSSIEGKIRADATAVAKTLGMNNITLYSIGFGDNDEVDMDYLRSLSATAGGEARQGTTQNLTALFQQFSQLATTPAITGTIRIPLSSFGGNVAVAENGQVWLDENKQNAYISFSIPYQVGQGTPAPVTIPIPVSFKAKGTYTFTAELTYRDVYGQLQPAVTKTVTVTVKDEAPPSFTGTVKLQGLTNDVTGLIKRGATDGDDNRFRATYSLSLVGYVGNATGTISNVSIVQELPDGISVVPDGKVTTYVENGKRYAKWSFTNQMFDYSQLNKLTLSAQWVMQADFAMNSVQLPPASVTFTDSRYGAKTSTLVPPAERIGMTVRLDDFPNFYYEGNGKGTITKHKFSALSDDIVGQANPNSYGLLPLPVKALEYDPNDDGVLLVTYSNGQTGIGVH”, for which the “soluble on expression in E. coli” value is “not soluble”.
Take “MHHHHHHSSGVDLGTENLYFQSNAMKNIEKLEQSLTYEFKDKNLLIHALTHKSFKKSYNNERLEFLGDAVLDLVVGEYLFHKFAKDAEGDLSKLRAALVNEKSFAKIANSLNLGDFILMSVAEENNGGKEKPSILSDALEAIIGAIHLEAGFEFAKTIALRLIEKNFPQIDAKILIKDYKTKLQEITQGKIGQTPQYETVRAFGPDHLKQFEIALMLDGKELARAIAGSKKEAQQMAAKIALEKLGAL”: the “soluble on expression in E. coli” value is given as “soluble”.
The entry for “MSLSTRVFPERPILVVDDERAALDGFEVALVSSGYTNIVTMDDSRKVLPFIAEHEAELILLDLIMPHVSGTELIEEIKRRRPEVPIIIITAVNDIDSVVECIRNGAQDYILKPVDKDHLRNRVQQALERRELERENRLLRASLLDGEIRHPEAFSDIVTQDQKMHAIFRYCEAVAPSTKPILITGETGTGKELVAQALHRLSGRKGEFVAVNIAAFDDPVFADTLFGHSRGAFTGADTPRAGLVEKAAGGTLFLDEIGDLPALSQVKLLRLLQEKEYFPVGSDNAKKANVRIVASTLKNLVDLRHRGLFRDDLYYRLTTHRIHIPPLRERPGDIPCLLDHFLELDAREQKRKPPSYHPELINLLRSYAFPGNIRELRGMISDAFMNHASHMLSSSSFRQYIMNEGHHHHHH” is “soluble”; for “MFNKKENSSPDVFDTLIGVNTFLEGNIETEGTVRIDGKIKGNVKVKGDVYIGKDANINGNISANNVYMSGRVDGNIEAKGVLRILSTAQLYGDILVQSLISDEGSIFEGNCKMVSASNAQNSDGSVSKNNKNVKDKDGDKSHTSA” it is “not soluble”; for “PPYTIVYFPVRGRAEAMRMLLADQGQSWKEEVVTIDTWMQGLLKPTCLYGQLPKFEDGDLTLYQSNAILRHLGRSLGLYGKNQREAAQMDMVNDGVEDLRGKYVTLIYTNYENGKNDYVKALPGHLKPFETLLSQNQGGKAFIVGDQISFADYNLLDLLLIHQVLAPGCLDNFPLLSAYVARLSARPKIKAFLSSPEHVNRPINGNGKQ” it is “soluble”.
As to “HETLTSPPLREGRYIMAVTGCGPVEGVKEDGAFAFRGIPYAKPPVDRLRWKPAELIDDINMCWNDTLQTHNSSVVCTQRLGNGTTVGDEDCLYLDVVTPHVRYNNPLPVVVLIGAESLAGPSPGILRPSARYSRSHDVIFVRPNFRLGVFGFLALDALTKEAHPPTSGNYALTDIIAVLNWIKLNIVHFGGDPQSVTLLGHRAGATLVTLLVNSQKVKGLYTRAWASSGSAILPGKPLSESGKQNEQLMATLECADIQCLREASSERLWAATPDTWLHFPVDLPQPQEANASGSRHEWLVLDGDVVFEHPSDTWKREQANDKPVLVMGATAHEAHTEKLRELHANWTREEVRAYLENSQIGALGLTDEVIEKYNASSYASLVSIISDIRSVCPLLTNARQQPSVPFYVVTQGEGPDQLATVDADVQAILGRYEPHTVEQRRFVSAMQQLFYYYVSHGTVQSFVQNRRVINVGQDAQPEEDYLPCNYWISKDIVPRYARVD”, the “soluble on expression in E. coli” value is “soluble”.
